Columns and labels:
GST-human NOGO-A56 [1] = target: T1, GST-human NOGO-A56 (human); assay: direct ELISA, GST-human NOGO-A56 coated at 1.0 mcg/ml, purified antibody, OD490
T1 construct: Expressed in E. coli BL21 from pGEX-6P1 and purified on glutathione-sepharose; the GST tag is part of the protein in the assays; also called GST-Nogo-A 5+6; GST Nogo-A 5 + 6
Method: Wells were rinsed once with TBS+0.05% Tween (TBST) then incubated with 2% BSA in TBST to block non-specific binding sites at room temperature for 1 hour. Antibodies were diluted in TBST+2% BSA to 10 μg/ml and ½ dilutions made from this. Antibodies were added to wells in duplicate and incubated at room temperature for 1 hour. […] The wells were washed three times with TBST and then incubated with 100 μl OPD peroxidase substrate (Sigma) per well for 10 minutes. The colour reaction was stopped by the addition of 25 μl concentrated H₂SO₄. Optical density at 490 nm was measured using a plate reader. Background values read from wells with no antibody were subtracted.

GST-human NOGO-A56 [2] = target: T1, GST-human NOGO-A56; assay: SPR (Biacore) off-rate on NOGO chip, panel of H6FL CDR H3 variants with L13FL
GST-human NOGO-A56 [3] = target: T1, GST-human NOGO-A56; assay: SPR (Biacore), GST-human NOGO-A56 amine-coupled to CM5, antibody flowed over, 25 C
Method: (§1) GST-human NOGO-A56 was immobilised to a CM5 chip by primary amine coupling using the Biacore Wizard program designed for targeted immobilisation levels. The CM5 sensor surface was activated by passing a solution of 50 mM N-hydroxy-succinimide (NHS) and 200 mM N-ethyl-N′-dimethylaminopropyl carbonide (EDC). Then GST-human NOGO-A56 in sodium acetate buffer, pH5.0 or pH 4.5, was passed over the chip and immobilised. After immobilisation was complete any still activated esters were blocked by an injection of 1M ethanolamine hydrochloride, pH8.5.
(§2) The anti-NOGO mAbs were diluted down in HBS-EP (10 mM HEPES, pH 7.4, 150 mM NaCl, 3 mM EDTA, and 0.005% P-20 surfactant) for the BIAcore 3000 or HBS-EP+ (10 mM HEPES, pH 7.4, 150 mM NaCl, 3 mM EDTA, and 0.05% P-20 surfactant) in the case of the T100 and binding studies were carried out at range of defined antibody concentrations. All runs were referenced against a blanked sensor surface (one that had been activated and blocked as described earlier but had no addition of ligand). Analysis of binding was carried out using the BIAevaluation kinetic analysis software version 4.1 for the BIAcore 3000 and T100 kinetic analysis software version 1.0. […] Unless otherwise stated, the BIAcore experiments were performed at 25° C.

GST-human NOGO-A56 [4] = target: T1, GST-human NOGO-A56; assay: as above; remark: listed apart in the source
Method: as §1, §2

GST-human NOGO-A56 [5] = target: T1, GST-human NOGO-A56; assay: SPR (Biacore), GST-human NOGO-A56 amine-coupled to CM5, antibody flowed over, 37 C
Method: as §1, §2

GST-human NOGO-A56 [6] = target: T1, GST-human NOGO-A56; assay: SPR (Biacore), GST-human NOGO-A56 amine-coupled to CM5, antibody flowed over, 25 C; remark: listed apart in the source
Method: as §1, §2

T1 sequence (chain, as listed by the source limits assumed): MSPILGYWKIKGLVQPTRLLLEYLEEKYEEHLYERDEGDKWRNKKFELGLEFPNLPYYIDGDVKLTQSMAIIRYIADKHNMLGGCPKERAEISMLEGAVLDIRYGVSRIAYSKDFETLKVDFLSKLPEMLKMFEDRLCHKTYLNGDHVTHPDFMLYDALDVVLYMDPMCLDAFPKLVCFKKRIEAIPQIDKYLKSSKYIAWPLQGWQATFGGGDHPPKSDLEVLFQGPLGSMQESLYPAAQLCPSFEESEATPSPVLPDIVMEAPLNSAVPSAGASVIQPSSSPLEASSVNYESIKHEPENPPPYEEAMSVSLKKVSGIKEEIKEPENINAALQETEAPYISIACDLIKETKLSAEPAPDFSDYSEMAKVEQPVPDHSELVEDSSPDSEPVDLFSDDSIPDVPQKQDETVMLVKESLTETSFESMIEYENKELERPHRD

B1: H1L11 (antibody, human IgG1, kappa, V domains shown)
VH: QVQLVQSGAEVKKPGASVKVSCKASGYTFTSYWMHWVRQAPGQGLEWMGNINPSNGGTNYNEKFKSRVTMTRDTSTSTVYMELSSLRSEDTAVYYCELGQGYWGQGTLVTVSS
VL: DIVITQSPLSLPVTLGQPASISCRSSKSLLYKDGKTYLNWFQQRPGQSPQLLIYLMSTRASGVPDRFSGGGSGTDFTLKISRVEAEDVGVYYCQQLVEYPLTFGQGTKLEIKR
notes: CDR H3 GQGY; also called humanised 2A10 variant H1L11 of WO05/061544
EC50 (read off the curve) (GST-human NOGO-A56 [1]): ~0.2 µg/mL

B2: H6L13 variant with VH CDR3 GQGW (antibody, human IgG1, kappa, V domains shown)
VH: QVQLVQSGAEVKKPGASVKVSCKASGYTFTSYWMHWVRQAPGQGLEWIGNINPSNGGTNYNEKFKSRATMTRDTSTSTAYMELSSLRSEDTAVYYCELGQGWWGQGTLVTVSS
VL: DIVMTQSPLSLPVTLGQPASISCRSSKSLLYKDGKTYLNWFQQRPGQSPQLLIYLMSTRASGVPDRFSGGGSGTDFTLKISRVEAEDVGVYYCQQLVEYPLTFGQGTKLEIKR
notes: Single point variant of H6FL with L13FL
koff (GST-human NOGO-A56 [2]): 0.0216 s⁻¹

B3: H6L13 variant with VH CDR3 GDGY (antibody, human IgG1, kappa, V domains shown)
VH: QVQLVQSGAEVKKPGASVKVSCKASGYTFTSYWMHWVRQAPGQGLEWIGNINPSNGGTNYNEKFKSRATMTRDTSTSTAYMELSSLRSEDTAVYYCELGDGYWGQGTLVTVSS
VL: DIVMTQSPLSLPVTLGQPASISCRSSKSLLYKDGKTYLNWFQQRPGQSPQLLIYLMSTRASGVPDRFSGGGSGTDFTLKISRVEAEDVGVYYCQQLVEYPLTFGQGTKLEIKR
notes: as for B2
koff (GST-human NOGO-A56 [2]): 0.0212 s⁻¹

B4: H6L13 variant with VH CDR3 GQSY (antibody, human IgG1, kappa, V domains shown)
VH: QVQLVQSGAEVKKPGASVKVSCKASGYTFTSYWMHWVRQAPGQGLEWIGNINPSNGGTNYNEKFKSRATMTRDTSTSTAYMELSSLRSEDTAVYYCELGQSYWGQGTLVTVSS
VL: DIVMTQSPLSLPVTLGQPASISCRSSKSLLYKDGKTYLNWFQQRPGQSPQLLIYLMSTRASGVPDRFSGGGSGTDFTLKISRVEAEDVGVYYCQQLVEYPLTFGQGTKLEIKR
notes: as for B2
koff (GST-human NOGO-A56 [2]): 0.0186 s⁻¹

B5: H6L13 variant with VH CDR3 GVGY (antibody, human IgG1, kappa, V domains shown)
VH: QVQLVQSGAEVKKPGASVKVSCKASGYTFTSYWMHWVRQAPGQGLEWIGNINPSNGGTNYNEKFKSRATMTRDTSTSTAYMELSSLRSEDTAVYYCELGVGYWGQGTLVTVSS
VL: DIVMTQSPLSLPVTLGQPASISCRSSKSLLYKDGKTYLNWFQQRPGQSPQLLIYLMSTRASGVPDRFSGGGSGTDFTLKISRVEAEDVGVYYCQQLVEYPLTFGQGTKLEIKR
notes: as for B2
koff (GST-human NOGO-A56 [2]): 0.0178 s⁻¹

B6: H6L13 variant with VH CDR3 GQNY (antibody, human IgG1, kappa, V domains shown)
VH: QVQLVQSGAEVKKPGASVKVSCKASGYTFTSYWMHWVRQAPGQGLEWIGNINPSNGGTNYNEKFKSRATMTRDTSTSTAYMELSSLRSEDTAVYYCELGQNYWGQGTLVTVSS
VL: DIVMTQSPLSLPVTLGQPASISCRSSKSLLYKDGKTYLNWFQQRPGQSPQLLIYLMSTRASGVPDRFSGGGSGTDFTLKISRVEAEDVGVYYCQQLVEYPLTFGQGTKLEIKR
notes: as for B2
koff (GST-human NOGO-A56 [2]): 0.00966 s⁻¹

B7: H6L13 variant with VH CDR3 GQFY (antibody, human IgG1, kappa, V domains shown)
VH: QVQLVQSGAEVKKPGASVKVSCKASGYTFTSYWMHWVRQAPGQGLEWIGNINPSNGGTNYNEKFKSRATMTRDTSTSTAYMELSSLRSEDTAVYYCELGQFYWGQGTLVTVSS
VL: DIVMTQSPLSLPVTLGQPASISCRSSKSLLYKDGKTYLNWFQQRPGQSPQLLIYLMSTRASGVPDRFSGGGSGTDFTLKISRVEAEDVGVYYCQQLVEYPLTFGQGTKLEIKR
notes: as for B2
koff (GST-human NOGO-A56 [2]): 0.0335 s⁻¹

B8: H6L13 variant with VH CDR3 GIGY (antibody, human IgG1, kappa, V domains shown)
VH: QVQLVQSGAEVKKPGASVKVSCKASGYTFTSYWMHWVRQAPGQGLEWIGNINPSNGGTNYNEKFKSRATMTRDTSTSTAYMELSSLRSEDTAVYYCELGIGYWGQGTLVTVSS
VL: DIVMTQSPLSLPVTLGQPASISCRSSKSLLYKDGKTYLNWFQQRPGQSPQLLIYLMSTRASGVPDRFSGGGSGTDFTLKISRVEAEDVGVYYCQQLVEYPLTFGQGTKLEIKR
notes: as for B2
koff (GST-human NOGO-A56 [2]): 0.0257 s⁻¹

B9: H6L13 variant with VH CDR3 GQWY (antibody, human IgG1, kappa, V domains shown)
VH: QVQLVQSGAEVKKPGASVKVSCKASGYTFTSYWMHWVRQAPGQGLEWIGNINPSNGGTNYNEKFKSRATMTRDTSTSTAYMELSSLRSEDTAVYYCELGQWYWGQGTLVTVSS
VL: DIVMTQSPLSLPVTLGQPASISCRSSKSLLYKDGKTYLNWFQQRPGQSPQLLIYLMSTRASGVPDRFSGGGSGTDFTLKISRVEAEDVGVYYCQQLVEYPLTFGQGTKLEIKR
notes: as for B2
koff (GST-human NOGO-A56 [2]): 0.0177 s⁻¹

B10: H6L13 variant with VH CDR3 GSGY (antibody, human IgG1, kappa, V domains shown)
VH: QVQLVQSGAEVKKPGASVKVSCKASGYTFTSYWMHWVRQAPGQGLEWIGNINPSNGGTNYNEKFKSRATMTRDTSTSTAYMELSSLRSEDTAVYYCELGSGYWGQGTLVTVSS
VL: DIVMTQSPLSLPVTLGQPASISCRSSKSLLYKDGKTYLNWFQQRPGQSPQLLIYLMSTRASGVPDRFSGGGSGTDFTLKISRVEAEDVGVYYCQQLVEYPLTFGQGTKLEIKR
notes: as for B2
koff (GST-human NOGO-A56 [2]): 0.0207 s⁻¹

B11: H6L13 variant with VH CDR3 GAGY (antibody, human IgG1, kappa, V domains shown)
VH: QVQLVQSGAEVKKPGASVKVSCKASGYTFTSYWMHWVRQAPGQGLEWIGNINPSNGGTNYNEKFKSRATMTRDTSTSTAYMELSSLRSEDTAVYYCELGAGYWGQGTLVTVSS
VL: DIVMTQSPLSLPVTLGQPASISCRSSKSLLYKDGKTYLNWFQQRPGQSPQLLIYLMSTRASGVPDRFSGGGSGTDFTLKISRVEAEDVGVYYCQQLVEYPLTFGQGTKLEIKR
notes: as for B2
koff (GST-human NOGO-A56 [2]): 0.0315 s⁻¹

B12: H6L13 variant with VH CDR3 RQGY (antibody, human IgG1, kappa, V domains shown)
VH: QVQLVQSGAEVKKPGASVKVSCKASGYTFTSYWMHWVRQAPGQGLEWIGNINPSNGGTNYNEKFKSRATMTRDTSTSTAYMELSSLRSEDTAVYYCELRQGYWGQGTLVTVSS
VL: DIVMTQSPLSLPVTLGQPASISCRSSKSLLYKDGKTYLNWFQQRPGQSPQLLIYLMSTRASGVPDRFSGGGSGTDFTLKISRVEAEDVGVYYCQQLVEYPLTFGQGTKLEIKR
notes: as for B2
koff (GST-human NOGO-A56 [2]): 0.0175 s⁻¹

B13: H27L13 (antibody, human IgG1, kappa, V domains shown)
VH: QVQLVQSGAEVKKPGASVKVSCKASGYTFTSYWMHWVKQRPGQGLEWIGNINPSNGGTNYNEKFKSKATLTVDKSTSTAYMELSSLRSEDTAVYYCELMQGYWGQGTLVTVSS
VL: DIVMTQSPLSLPVTLGQPASISCRSSKSLLYKDGKTYLNWFQQRPGQSPQLLIYLMSTRASGVPDRFSGGGSGTDFTLKISRVEAEDVGVYYCQQLVEYPLTFGQGTKLEIKR
notes: IgG1 (L235A, G237A) / kappa; CAMPATH-1H signal (1-19) left out
Kd (GST-human NOGO-A56 [3]): 0.291 nM
koff (GST-human NOGO-A56 [3]): 0.0018 s⁻¹
kon (GST-human NOGO-A56 [3]): 6.2e+06 M⁻¹ s⁻¹
EC50 (read off the curve) (GST-human NOGO-A56 [1]): ~0.08 µg/mL
Kd (GST-human NOGO-A56 [4]): 0.28 nM
koff (GST-human NOGO-A56 [4]): 0.00183 s⁻¹
kon (GST-human NOGO-A56 [4]): 6.58e+06 M⁻¹ s⁻¹
Kd (GST-human NOGO-A56 [5]): 0.641 nM
koff (GST-human NOGO-A56 [5]): 0.00422 s⁻¹
kon (GST-human NOGO-A56 [5]): 6.58e+06 M⁻¹ s⁻¹
Kd (GST-human NOGO-A56 [6]): 0.606 nM
koff (GST-human NOGO-A56 [6]): 0.00213 s⁻¹
kon (GST-human NOGO-A56 [6]): 3.5e+06 M⁻¹ s⁻¹

B14: H16L16 (antibody, human IgG1, kappa, V domains shown)
VH: QVQLVQSGAEVKKPGASVKVSCKASGYTFTSYWMHWVKQRPGQGLEWIGNINPSNGGTNYNEKFKSKATLTVDKSTSTAYMELSSLRSEDTAVYYCELGQGYWGQGTLVTVSS
VL: DIVMTQSPLSNPVTLGQPVSISCRSSKSLLYKDGKTYLNWFLQRPGQSPQLLIYLMSTRASGVPDRFSGGGSGTDFTLKISRVEAEDVGVYYCQQLVEYPLTFGQGTKLEIKR
notes: as for B13
EC50 (read off the curve) (GST-human NOGO-A56 [1]): ~0.08 µg/mL
Kd (GST-human NOGO-A56 [5]): 1.16 nM
koff (GST-human NOGO-A56 [5]): 0.00616 s⁻¹
kon (GST-human NOGO-A56 [5]): 5.31e+06 M⁻¹ s⁻¹
Kd (GST-human NOGO-A56 [6]): 1.08 nM
koff (GST-human NOGO-A56 [6]): 0.00372 s⁻¹
kon (GST-human NOGO-A56 [6]): 3.43e+06 M⁻¹ s⁻¹

B15: H6L13 variant with VH CDR3 GQLY (antibody, human IgG1, kappa, V domains shown)
VH: QVQLVQSGAEVKKPGASVKVSCKASGYTFTSYWMHWVRQAPGQGLEWIGNINPSNGGTNYNEKFKSRATMTRDTSTSTAYMELSSLRSEDTAVYYCELGQLYWGQGTLVTVSS
VL: DIVMTQSPLSLPVTLGQPASISCRSSKSLLYKDGKTYLNWFQQRPGQSPQLLIYLMSTRASGVPDRFSGGGSGTDFTLKISRVEAEDVGVYYCQQLVEYPLTFGQGTKLEIKR
notes: as for B2
koff (GST-human NOGO-A56 [2]): 0.0132 s⁻¹

B16: H6L13 variant with VH CDR3 GQYY (antibody, human IgG1, kappa, V domains shown)
VH: QVQLVQSGAEVKKPGASVKVSCKASGYTFTSYWMHWVRQAPGQGLEWIGNINPSNGGTNYNEKFKSRATMTRDTSTSTAYMELSSLRSEDTAVYYCELGQYYWGQGTLVTVSS
VL: DIVMTQSPLSLPVTLGQPASISCRSSKSLLYKDGKTYLNWFQQRPGQSPQLLIYLMSTRASGVPDRFSGGGSGTDFTLKISRVEAEDVGVYYCQQLVEYPLTFGQGTKLEIKR
notes: as for B2
koff (GST-human NOGO-A56 [2]): 0.0328 s⁻¹

B17: H6L13 variant with VH CDR3 IQGY (antibody, human IgG1, kappa, V domains shown)
VH: QVQLVQSGAEVKKPGASVKVSCKASGYTFTSYWMHWVRQAPGQGLEWIGNINPSNGGTNYNEKFKSRATMTRDTSTSTAYMELSSLRSEDTAVYYCELIQGYWGQGTLVTVSS
VL: DIVMTQSPLSLPVTLGQPASISCRSSKSLLYKDGKTYLNWFQQRPGQSPQLLIYLMSTRASGVPDRFSGGGSGTDFTLKISRVEAEDVGVYYCQQLVEYPLTFGQGTKLEIKR
notes: as for B2
koff (GST-human NOGO-A56 [2]): 0.0172 s⁻¹

B18: H6L13 variant with VH CDR3 GLGY (antibody, human IgG1, kappa, V domains shown)
VH: QVQLVQSGAEVKKPGASVKVSCKASGYTFTSYWMHWVRQAPGQGLEWIGNINPSNGGTNYNEKFKSRATMTRDTSTSTAYMELSSLRSEDTAVYYCELGLGYWGQGTLVTVSS
VL: DIVMTQSPLSLPVTLGQPASISCRSSKSLLYKDGKTYLNWFQQRPGQSPQLLIYLMSTRASGVPDRFSGGGSGTDFTLKISRVEAEDVGVYYCQQLVEYPLTFGQGTKLEIKR
notes: as for B2
koff (GST-human NOGO-A56 [2]): 0.019 s⁻¹
